Reference: patent US5591427A, “Human Interleukin-3(Il-3) variants and their use to promote or antagonize IL-3-mediated processes” (Medvet Science Pty. Ltd., priority 1979, dated 1997)

System: basophils
Assay: Histamine release assay with basophils
Type: cell-based, human
Conditions: FIG. 4
Description: This was carried out as previously described (Lopez et. al., 1990, J. Cell. Physiol., 145, 69-77). Briefly, basophils were obtained from the peripheral blood of normal individuals after dextran sedimentation and centrifugation over Lymphoprep. The percentage of basophils in these preparations varied between 0.2% and 10%. In 300 μl 2×10^4 cells were incubated with 2 μg/ml of purified human IgE. IgE-sensitisedcells were mixed with a goat IgG antihuman IgE (Cappel 0101-0061) and rhIL-3, in a final volume of 500 μl. After incubation for 60 min at 37° C., the cells were centrifuged and 350 μl aliquots removed and stored at -20° C. before assaying for histamine content. Histamine was assayed using a radioertzymatic method essentially as described (Shaff and Beavan, 1979, Anal. Biochem., 94, 425-430). Briefly, samples of 30 μl were diluted with an equal volume of water and mixed with a 30 μl solution comprising 27.5 μl 0.1 M sodium phosphate, pH 7.9, 1.5 μl rat kidney histamine-N-methyltransferase, and 1.0 μl (0.5 μCi)^3 H-methyl-S-adensoyl-L-methionine (Dupont Net 155, low SA). Tritium-labelled methyl-histamine was extracted into chloroform/ether, dried, and counted by scintillation spectrophotometry. […] as nanograms of histamine per milliliter by extrapolation to a standard curve constructed with 10, 5 and 1 ng/ml of histamine (SIGMA).

B1: M37: human IL-3 mutant, Asp 101 replaced by Ala and Lys 116 by Val (protein, UniProt P08700 20-152, looked up, variant D101A K116V)
Interleukin-3: APMTQTTPLKTSWVNCSNMIDEIITHLKQPPLPLLDFNNLNGEDQDILMENNLRRPNLEAFNRAVKSLQNASAIESILKNLLPCLPLATAAPTRHPIHIKAGDWNEFRRKLTFYLVTLENAQAQQTTLSLAIF
histamine release from basophils: increased histamine release
